# Experimental data from patent publication US20210032299A1 (Eli Lilly, published 2021).
# Starred links: 1 amine or outer side, 2 acyl side, 3 side chain; linkers in the order of their positions; H or OH if unused. Non-standard residues stand in square brackets, D forms with d. Groups on a side chain read outwards from the residue. No end group written: not given here. *: point of attachment. C20 diacid = O=C(O)CCCCCCCCCCCCCCCCCCC(=O)*; γGlu = O=C(O)[C@H](CCC(=O)[*:2])N[*:1]; 4Pal = N[C@@H](Cc1ccncc1)C(=O)O; αMeL = CC(C)C[C@](C)(N)C(=O)O; Orn = NCCC[C@H](N)C(=O)O; AEEA = NCCOCCOCC(=O)O; Aib = CC(C)(N)C(=O)O
# T1: human glucose-dependent insulinotropic peptide receptor (human, UniProt P48546 22-466)
# T1 sequence (looked up): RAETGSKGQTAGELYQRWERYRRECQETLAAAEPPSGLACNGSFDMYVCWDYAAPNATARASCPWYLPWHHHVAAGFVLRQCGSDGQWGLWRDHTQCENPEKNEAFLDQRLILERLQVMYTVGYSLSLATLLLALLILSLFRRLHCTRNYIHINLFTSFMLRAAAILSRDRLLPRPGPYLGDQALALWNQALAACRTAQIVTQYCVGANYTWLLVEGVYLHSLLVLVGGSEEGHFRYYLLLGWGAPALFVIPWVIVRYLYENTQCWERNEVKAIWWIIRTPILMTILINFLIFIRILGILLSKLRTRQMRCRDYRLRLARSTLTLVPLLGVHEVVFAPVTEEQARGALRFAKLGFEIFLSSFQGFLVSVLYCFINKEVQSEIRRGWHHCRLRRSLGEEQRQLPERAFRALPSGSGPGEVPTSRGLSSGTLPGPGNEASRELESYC
# B1: Example 82 (peptide)
# peptide: Y[Aib]EGTFISDYSI[αMeL]LD[Orn]K([AEEA-AEEA-γGlu-C20 diacid])HQ[Aib]DFVE[4Pal]LLEGGPSSGAPPPS-NH2
# modifications: N-terminus assumed
# SMILES: CC[C@H](C)[C@H](NC(=O)[C@H](Cc1ccccc1)NC(=O)[C@@H](NC(=O)CNC(=O)[C@H](CCC(=O)O)NC(=O)C(C)(C)NC(=O)[C@@H](N)Cc1ccc(O)cc1)[C@@H](C)O)C(=O)N[C@@H](CO)C(=O)N[C@@H](CC(=O)O)C(=O)N[C@@H](Cc1ccc(O)cc1)C(=O)N[C@@H](CO)C(=O)N[C@H](C(=O)N[C@@](C)(CC(C)C)C(=O)N[C@@H](CC(C)C)C(=O)N[C@@H](CC(=O)O)C(=O)N[C@@H](CCCN)C(=O)N[C@@H](CCCCNC(=O)COCCOCCNC(=O)COCCOCCNC(=O)CC[C@H](NC(=O)CCCCCCCCCCCCCCCCCCC(=O)O)C(=O)O)C(=O)N[C@@H](Cc1c[nH]cn1)C(=O)N[C@@H](CCC(N)=O)C(=O)NC(C)(C)C(=O)N[C@@H](CC(=O)O)C(=O)N[C@@H](Cc1ccccc1)C(=O)N[C@H](C(=O)N[C@@H](CCC(=O)O)C(=O)N[C@@H](Cc1ccncc1)C(=O)N[C@@H](CC(C)C)C(=O)N[C@@H](CC(C)C)C(=O)N[C@@H](CCC(=O)O)C(=O)NCC(=O)NCC(=O)N1CCC[C@H]1C(=O)N[C@@H](CO)C(=O)N[C@@H](CO)C(=O)NCC(=O)N[C@@H](C)C(=O)N1CCC[C@H]1C(=O)N1CCC[C@H]1C(=O)N1CCC[C@H]1C(=O)N[C@@H](CO)C(N)=O)C(C)C)[C@@H](C)CC
# B2: Example 81 (peptide)
# peptide: Y[Aib]EGTFISDYSI[αMeL]LD[Orn]K([AEEA-AEEA-γGlu-C20 diacid])HQ[Aib]DFVE[4Pal]LLEQGPSSGAPPPS-NH2
# modifications: N-terminus assumed
# SMILES: CC[C@H](C)[C@H](NC(=O)[C@H](Cc1ccccc1)NC(=O)[C@@H](NC(=O)CNC(=O)[C@H](CCC(=O)O)NC(=O)C(C)(C)NC(=O)[C@@H](N)Cc1ccc(O)cc1)[C@@H](C)O)C(=O)N[C@@H](CO)C(=O)N[C@@H](CC(=O)O)C(=O)N[C@@H](Cc1ccc(O)cc1)C(=O)N[C@@H](CO)C(=O)N[C@H](C(=O)N[C@@](C)(CC(C)C)C(=O)N[C@@H](CC(C)C)C(=O)N[C@@H](CC(=O)O)C(=O)N[C@@H](CCCN)C(=O)N[C@@H](CCCCNC(=O)COCCOCCNC(=O)COCCOCCNC(=O)CC[C@H](NC(=O)CCCCCCCCCCCCCCCCCCC(=O)O)C(=O)O)C(=O)N[C@@H](Cc1c[nH]cn1)C(=O)N[C@@H](CCC(N)=O)C(=O)NC(C)(C)C(=O)N[C@@H](CC(=O)O)C(=O)N[C@@H](Cc1ccccc1)C(=O)N[C@H](C(=O)N[C@@H](CCC(=O)O)C(=O)N[C@@H](Cc1ccncc1)C(=O)N[C@@H](CC(C)C)C(=O)N[C@@H](CC(C)C)C(=O)N[C@@H](CCC(=O)O)C(=O)N[C@@H](CCC(N)=O)C(=O)NCC(=O)N1CCC[C@H]1C(=O)N[C@@H](CO)C(=O)N[C@@H](CO)C(=O)NCC(=O)N[C@@H](C)C(=O)N1CCC[C@H]1C(=O)N1CCC[C@H]1C(=O)N1CCC[C@H]1C(=O)N[C@@H](CO)C(N)=O)C(C)C)[C@@H](C)CC
# B3: Example 83 (peptide)
# peptide: Y[Aib]EGTFISDYSI[αMeL]LDEK([AEEA-AEEA-γGlu-C20 diacid])HQ[Aib]DFVE[4Pal]LLATGPSSGAPPPS-NH2
# modifications: N-terminus assumed
# SMILES: CC[C@H](C)[C@H](NC(=O)[C@H](Cc1ccccc1)NC(=O)[C@@H](NC(=O)CNC(=O)[C@H](CCC(=O)O)NC(=O)C(C)(C)NC(=O)[C@@H](N)Cc1ccc(O)cc1)[C@@H](C)O)C(=O)N[C@@H](CO)C(=O)N[C@@H](CC(=O)O)C(=O)N[C@@H](Cc1ccc(O)cc1)C(=O)N[C@@H](CO)C(=O)N[C@H](C(=O)N[C@@](C)(CC(C)C)C(=O)N[C@@H](CC(C)C)C(=O)N[C@@H](CC(=O)O)C(=O)N[C@@H](CCC(=O)O)C(=O)N[C@@H](CCCCNC(=O)COCCOCCNC(=O)COCCOCCNC(=O)CC[C@H](NC(=O)CCCCCCCCCCCCCCCCCCC(=O)O)C(=O)O)C(=O)N[C@@H](Cc1c[nH]cn1)C(=O)N[C@@H](CCC(N)=O)C(=O)NC(C)(C)C(=O)N[C@@H](CC(=O)O)C(=O)N[C@@H](Cc1ccccc1)C(=O)N[C@H](C(=O)N[C@@H](CCC(=O)O)C(=O)N[C@@H](Cc1ccncc1)C(=O)N[C@@H](CC(C)C)C(=O)N[C@@H](CC(C)C)C(=O)N[C@@H](C)C(=O)N[C@H](C(=O)NCC(=O)N1CCC[C@H]1C(=O)N[C@@H](CO)C(=O)N[C@@H](CO)C(=O)NCC(=O)N[C@@H](C)C(=O)N1CCC[C@H]1C(=O)N1CCC[C@H]1C(=O)N1CCC[C@H]1C(=O)N[C@@H](CO)C(N)=O)[C@@H](C)O)C(C)C)[C@@H](C)CC
# B4: Example 84 (peptide)
# peptide: Y[Aib]EGTFISDYSI[αMeL]LDEK([AEEA-AEEA-γGlu-C20 diacid])HQ[Aib]DFVE[4Pal]LLAQGPSSGAPPPS-NH2
# modifications: N-terminus assumed
# SMILES: CC[C@H](C)[C@H](NC(=O)[C@H](Cc1ccccc1)NC(=O)[C@@H](NC(=O)CNC(=O)[C@H](CCC(=O)O)NC(=O)C(C)(C)NC(=O)[C@@H](N)Cc1ccc(O)cc1)[C@@H](C)O)C(=O)N[C@@H](CO)C(=O)N[C@@H](CC(=O)O)C(=O)N[C@@H](Cc1ccc(O)cc1)C(=O)N[C@@H](CO)C(=O)N[C@H](C(=O)N[C@@](C)(CC(C)C)C(=O)N[C@@H](CC(C)C)C(=O)N[C@@H](CC(=O)O)C(=O)N[C@@H](CCC(=O)O)C(=O)N[C@@H](CCCCNC(=O)COCCOCCNC(=O)COCCOCCNC(=O)CC[C@H](NC(=O)CCCCCCCCCCCCCCCCCCC(=O)O)C(=O)O)C(=O)N[C@@H](Cc1c[nH]cn1)C(=O)N[C@@H](CCC(N)=O)C(=O)NC(C)(C)C(=O)N[C@@H](CC(=O)O)C(=O)N[C@@H](Cc1ccccc1)C(=O)N[C@H](C(=O)N[C@@H](CCC(=O)O)C(=O)N[C@@H](Cc1ccncc1)C(=O)N[C@@H](CC(C)C)C(=O)N[C@@H](CC(C)C)C(=O)N[C@@H](C)C(=O)N[C@@H](CCC(N)=O)C(=O)NCC(=O)N1CCC[C@H]1C(=O)N[C@@H](CO)C(=O)N[C@@H](CO)C(=O)NCC(=O)N[C@@H](C)C(=O)N1CCC[C@H]1C(=O)N1CCC[C@H]1C(=O)N1CCC[C@H]1C(=O)N[C@@H](CO)C(N)=O)C(C)C)[C@@H](C)CC
# B5: Example 85 (peptide)
# peptide: Y[Aib]EGTFISDYSI[αMeL]LDEK([AEEA-AEEA-γGlu-C20 diacid])HQ[Aib]DFVE[4Pal]LLAAGPSSGAPPPS-NH2
# modifications: N-terminus assumed
# SMILES: CC[C@H](C)[C@H](NC(=O)[C@H](Cc1ccccc1)NC(=O)[C@@H](NC(=O)CNC(=O)[C@H](CCC(=O)O)NC(=O)C(C)(C)NC(=O)[C@@H](N)Cc1ccc(O)cc1)[C@@H](C)O)C(=O)N[C@@H](CO)C(=O)N[C@@H](CC(=O)O)C(=O)N[C@@H](Cc1ccc(O)cc1)C(=O)N[C@@H](CO)C(=O)N[C@H](C(=O)N[C@@](C)(CC(C)C)C(=O)N[C@@H](CC(C)C)C(=O)N[C@@H](CC(=O)O)C(=O)N[C@@H](CCC(=O)O)C(=O)N[C@@H](CCCCNC(=O)COCCOCCNC(=O)COCCOCCNC(=O)CC[C@H](NC(=O)CCCCCCCCCCCCCCCCCCC(=O)O)C(=O)O)C(=O)N[C@@H](Cc1c[nH]cn1)C(=O)N[C@@H](CCC(N)=O)C(=O)NC(C)(C)C(=O)N[C@@H](CC(=O)O)C(=O)N[C@@H](Cc1ccccc1)C(=O)N[C@H](C(=O)N[C@@H](CCC(=O)O)C(=O)N[C@@H](Cc1ccncc1)C(=O)N[C@@H](CC(C)C)C(=O)N[C@@H](CC(C)C)C(=O)N[C@@H](C)C(=O)N[C@@H](C)C(=O)NCC(=O)N1CCC[C@H]1C(=O)N[C@@H](CO)C(=O)N[C@@H](CO)C(=O)NCC(=O)N[C@@H](C)C(=O)N1CCC[C@H]1C(=O)N1CCC[C@H]1C(=O)N1CCC[C@H]1C(=O)N[C@@H](CO)C(N)=O)C(C)C)[C@@H](C)CC
# Target: T1, human glucose-dependent insulinotropic …
# Experiment: cell-based or functional assay
row,Binder,hGIPR cAMP Rel EC50
1,B1,0.0391 nM
2,B2,0.0282 nM
3,B3,0.0432 nM
4,B4,0.034 nM
5,B5,0.0359 nM

# Target: human glucagon receptor (human, UniProt P47871 26-477)
# Experiment: cell-based or functional assay
# Chain of human glucagon receptor (P47871 26-477): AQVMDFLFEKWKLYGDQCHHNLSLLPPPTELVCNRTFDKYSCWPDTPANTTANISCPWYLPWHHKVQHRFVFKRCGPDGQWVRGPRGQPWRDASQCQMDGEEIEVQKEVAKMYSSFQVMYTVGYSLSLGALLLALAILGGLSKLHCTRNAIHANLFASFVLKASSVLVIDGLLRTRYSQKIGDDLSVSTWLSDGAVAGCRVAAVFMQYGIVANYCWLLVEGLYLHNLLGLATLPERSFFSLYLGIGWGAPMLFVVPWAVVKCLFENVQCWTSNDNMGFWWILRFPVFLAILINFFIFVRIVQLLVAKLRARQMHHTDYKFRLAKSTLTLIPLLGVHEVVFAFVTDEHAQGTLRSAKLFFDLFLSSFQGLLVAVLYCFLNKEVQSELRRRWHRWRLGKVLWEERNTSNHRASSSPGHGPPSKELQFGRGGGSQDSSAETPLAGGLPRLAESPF
row,Binder,hGcgR cAMP Rel EC50
1,B1,3.79 µM
2,B2,> 5 µM
3,B3,> 5 µM
4,B4,> 5 µM
5,B5,> 5 µM

# Target: human GLP-1 receptor (human, UniProt P43220 24-463)
# Experiment: cell-based or functional assay
row,Binder,hGLP1R cAMP Rel EC50
1,B1,> 5 µM
2,B2,> 5 µM
3,B3,> 5 µM
4,B4,> 5 µM
5,B5,> 5 µM
